Experimental data from patent US20220127354A1 (Amgen, published 2022).

Key:
[1] = target: T1, ckCDH19(1-43)::FLAG::ckCDH19(44-141)::huCDH19(142-249)::ckCDH19(250-776) (construct L, Hu EC2) (human/chicken chimera); assay: flow cytometry, transfected 293T cells, 2 mM CaCl2;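 also: binding of Alexa647-labelled anti-CDH19 antibodies to cells expressing human/chicken CDH19 chimeras, read as cell-bound fluorescence, with mock-transfected cells as controls, n.d. meaning not determined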
T1 construct: leader (1-43 of the entry) left out
T1 chain: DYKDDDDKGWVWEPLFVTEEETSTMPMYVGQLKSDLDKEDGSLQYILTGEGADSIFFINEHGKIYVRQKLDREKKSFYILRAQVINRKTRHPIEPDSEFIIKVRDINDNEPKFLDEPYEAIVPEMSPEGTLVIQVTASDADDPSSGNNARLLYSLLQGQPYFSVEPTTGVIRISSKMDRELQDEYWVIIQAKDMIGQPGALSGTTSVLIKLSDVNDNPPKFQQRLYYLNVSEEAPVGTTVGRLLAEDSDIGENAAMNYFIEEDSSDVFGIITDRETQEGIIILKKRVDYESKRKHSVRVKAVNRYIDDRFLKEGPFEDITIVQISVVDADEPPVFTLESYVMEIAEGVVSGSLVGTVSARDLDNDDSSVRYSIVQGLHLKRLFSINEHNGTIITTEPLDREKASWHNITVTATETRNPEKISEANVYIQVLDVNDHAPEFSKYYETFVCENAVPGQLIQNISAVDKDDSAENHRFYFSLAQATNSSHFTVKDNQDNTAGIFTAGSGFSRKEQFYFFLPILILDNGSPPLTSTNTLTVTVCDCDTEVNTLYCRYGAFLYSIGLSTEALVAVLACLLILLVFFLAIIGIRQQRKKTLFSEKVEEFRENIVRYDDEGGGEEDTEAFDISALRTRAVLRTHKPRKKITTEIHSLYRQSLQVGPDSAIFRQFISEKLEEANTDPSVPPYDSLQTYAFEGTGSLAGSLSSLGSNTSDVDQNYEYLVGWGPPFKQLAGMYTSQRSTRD
Protocol: (§1) The experiment included assaying a subset of anti-CDH19 antibodies against chicken Cadherin19 to determine suitability for binning on these human/chicken chimeras.
(§2) The following binding assay was completed in presence of 2 mM CaCl₂). […] Cells were then washed one time and the amount of cell associated Alexa647-labelled Ab was quantitated by flow cytometry. The experiments included mock transfected controls.

[2] = target: T2, huCDH19(1-43)::FLAG::hu(44-141)::ckCDH19(142-776) (construct K, Hu EC1) (human/chicken chimera); assay: flow cytometry, transfected 293T cells, 2 mM CaCl2;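 also: binding of Alexa647-labelled anti-CDH19 antibodies to cells expressing human/chicken CDH19 chimeras, read as cell-bound fluorescence, with mock-transfected cells as controls, n.d. meaning not determined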
T2 construct: leader (1-43 of the entry) left out; also called huCDH19(44-141)::ckCDH19(142-776)
Protocol: as §1, §2

[3] = target: T3, ckCDH19(1-43)::FLAG::ckCDH19(44-776) (construct J, Ck EC1-5) (chicken); assay: flow cytometry, transfected 293T cells, 2 mM CaCl2;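 also: binding of Alexa647-labelled anti-CDH19 antibodies to cells expressing human/chicken CDH19 chimeras, read as cell-bound fluorescence, with mock-transfected cells as controls, n.d. meaning not determined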
T3 construct: the entry holds leader (1-43), FLAG and ckCDH19(44-776); leader left out; also called chicken Cadherin19
T3 chain: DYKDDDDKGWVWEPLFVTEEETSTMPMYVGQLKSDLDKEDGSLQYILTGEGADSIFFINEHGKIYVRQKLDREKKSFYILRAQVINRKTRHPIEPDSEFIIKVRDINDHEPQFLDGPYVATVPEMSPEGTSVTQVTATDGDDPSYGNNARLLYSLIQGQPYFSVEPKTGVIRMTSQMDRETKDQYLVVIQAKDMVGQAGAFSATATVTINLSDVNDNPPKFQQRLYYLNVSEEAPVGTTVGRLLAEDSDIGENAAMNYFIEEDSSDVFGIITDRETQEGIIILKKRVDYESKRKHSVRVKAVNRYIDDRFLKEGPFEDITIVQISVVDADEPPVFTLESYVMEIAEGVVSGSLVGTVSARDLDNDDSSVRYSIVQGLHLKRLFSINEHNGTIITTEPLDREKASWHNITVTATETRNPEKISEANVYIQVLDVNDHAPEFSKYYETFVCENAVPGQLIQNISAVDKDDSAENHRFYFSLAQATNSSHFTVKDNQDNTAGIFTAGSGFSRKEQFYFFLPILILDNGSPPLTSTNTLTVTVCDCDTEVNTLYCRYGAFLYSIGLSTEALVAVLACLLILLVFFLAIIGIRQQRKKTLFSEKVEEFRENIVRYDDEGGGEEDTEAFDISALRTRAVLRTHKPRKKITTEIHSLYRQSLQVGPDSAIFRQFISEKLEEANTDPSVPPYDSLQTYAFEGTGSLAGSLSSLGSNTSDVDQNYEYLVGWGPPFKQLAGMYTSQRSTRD
Protocol: as §1, §2

[4] = target: T4, ckCDH19(1-43)::FLAG::ckCDH19(44-468)::huCDH19(464-772) (construct O, Hu EC5) (human/chicken chimera); assay: flow cytometry, transfected 293T cells, 2 mM CaCl2;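 also: binding of Alexa647-labelled anti-CDH19 antibodies to cells expressing human/chicken CDH19 chimeras, read as cell-bound fluorescence, with mock-transfected cells as controls, n.d. meaning not determined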
T4 construct: leader (1-43 of the entry) left out
T4 chain: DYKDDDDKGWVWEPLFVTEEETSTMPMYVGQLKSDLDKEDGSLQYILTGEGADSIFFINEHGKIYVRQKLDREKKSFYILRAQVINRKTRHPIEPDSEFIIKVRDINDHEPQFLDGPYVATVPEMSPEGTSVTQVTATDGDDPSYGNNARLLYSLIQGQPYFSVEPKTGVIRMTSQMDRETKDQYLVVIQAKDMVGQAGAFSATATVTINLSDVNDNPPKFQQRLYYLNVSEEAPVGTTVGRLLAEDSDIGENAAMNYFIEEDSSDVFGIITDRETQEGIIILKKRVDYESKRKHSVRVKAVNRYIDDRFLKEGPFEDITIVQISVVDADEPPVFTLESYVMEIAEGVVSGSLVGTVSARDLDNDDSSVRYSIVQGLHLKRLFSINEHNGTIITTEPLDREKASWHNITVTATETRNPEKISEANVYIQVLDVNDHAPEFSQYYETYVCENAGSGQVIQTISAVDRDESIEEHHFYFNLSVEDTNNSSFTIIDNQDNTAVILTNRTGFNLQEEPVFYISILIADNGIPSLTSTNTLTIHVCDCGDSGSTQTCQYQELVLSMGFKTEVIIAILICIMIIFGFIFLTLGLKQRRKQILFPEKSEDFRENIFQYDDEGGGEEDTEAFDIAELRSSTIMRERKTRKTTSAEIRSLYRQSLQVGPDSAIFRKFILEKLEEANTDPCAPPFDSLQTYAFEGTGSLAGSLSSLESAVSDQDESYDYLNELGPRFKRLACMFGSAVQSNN
Protocol: as §1, §2

[5] = target: huCDH19(44-772) with Flag tag (construct A, Hu EC1-5) (human, UniProt Q9H159 44-772); assay: flow cytometry, transfected 293T cells
Description: (§3) The experiment included assaying the anti-CDH19 antibodies against mouse Cadherin19 to determine suitability for binning on these human/mouse chimeras.

[6] = target: T5, muCDH19(44-247)::huCDH19(250-364)::muCDH19(363-770) with Flag tag (construct F, Hu EC3) (human/mouse chimera); assay: flow cytometry, transfected 293T cells
T5 construct: leader left out; the entry starts at residue 44; also called C137911
Description: as §3

[7] = target: T6, muCDH19(44-139)::huCDH19(142-364)::muCDH19(363-770) with Flag tag (construct E, Hu EC2-3) (human/mouse chimera); assay: flow cytometry, transfected 293T cells
T6 construct: leader left out; the entry starts at residue 44; also called C137847
Description: as §3

[8] = target: T7, muCDH19(44-770) with Flag tag (construct I, Mu EC1-5) (mouse); assay: flow cytometry, transfected 293T cells, 2 mM CaCl2
T7 construct: leader left out; the entry starts at residue 44; also called Mo EC1-5; mouse Cadherin19
T7 chain: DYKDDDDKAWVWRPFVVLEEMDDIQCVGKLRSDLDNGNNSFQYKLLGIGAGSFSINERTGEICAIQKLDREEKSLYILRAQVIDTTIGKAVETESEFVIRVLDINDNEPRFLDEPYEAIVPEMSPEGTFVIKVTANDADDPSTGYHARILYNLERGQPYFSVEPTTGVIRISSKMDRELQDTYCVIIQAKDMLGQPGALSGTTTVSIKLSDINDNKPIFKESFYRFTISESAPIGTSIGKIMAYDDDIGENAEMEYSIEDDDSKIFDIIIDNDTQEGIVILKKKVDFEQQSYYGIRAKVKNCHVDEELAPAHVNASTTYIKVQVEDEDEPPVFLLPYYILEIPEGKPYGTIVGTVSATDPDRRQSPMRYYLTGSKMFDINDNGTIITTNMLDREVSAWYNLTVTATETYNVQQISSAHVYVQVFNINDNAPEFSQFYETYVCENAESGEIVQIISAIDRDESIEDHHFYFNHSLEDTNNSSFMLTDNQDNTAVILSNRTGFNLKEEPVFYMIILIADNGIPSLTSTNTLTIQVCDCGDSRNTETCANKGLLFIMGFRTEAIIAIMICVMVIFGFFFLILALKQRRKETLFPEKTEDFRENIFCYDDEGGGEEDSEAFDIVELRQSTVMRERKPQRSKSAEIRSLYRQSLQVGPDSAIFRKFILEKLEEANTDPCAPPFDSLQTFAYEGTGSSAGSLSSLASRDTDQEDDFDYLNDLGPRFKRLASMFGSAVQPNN
Protocol: as §2

B1: hu anti-<huCDH19> 17H8.2 (Ab ID 13874) (antibody, human IgG1, kappa, V domains shown)
VH: QVQLQESGPGLVKPSETLSLTCTVSGGSINSYYWSWIRQPPGKGLEWIGYIYYIGSTNYNPSLKSRVTISVDTSKNQFSLKLSSVTAADTALYYCARDSRYRSGWYDAFDIWGQGTMVTVSS
VL: DIVLTQSPGTLSLSPGERATLSCRASQSVAGSYLAWYQQKPGQAPRLLISGASSRATGIPDRFSGSGSGTDFTLTISRLEPEDFAVYYCQQYGKSPITFGQGTRLEMKG
notes: huIgG1z / huKLC; Bin 3; also called 23B6; 28D10
binding result [1]: no binding (tested: 5 ug/ml) | binding result [2]: binds | binding result [3]: no binding (tested: 5 ug/ml) | binding result [4]: no binding (tested: 5 ug/ml)

B2: hu anti-<huCDH19> 4A2 (1-472)(Q17E,H47P) VH::huIgG1z + 4A2 (1-236)(N30Q,T102A) VL::huKLC (Ab ID 14026) (antibody, V domains shown)
VH: QVQLQESGPGLVKPSETLSLTCTVSGGSISSSGYYWSWIRQPPGKGLEWIGYIYYTGSAYYNPSLKSRVTISVDTSKNQFSLKLSSVTAADTAVYYCARDGSSGWYFQYWGQGTLVTVSS
VL: EIVLTQSPGTLSLSPGERATLSCRASRQISSSYLAWYQQKPGQAPRLLIYGPSSRATGIPDRFSGSGSGTDFTLTISRLEPEDFAVYYCQQYGSSFTFGPGTKVDIKR
notes: Engineered variant of 4A2; the entries already carry the changes; Bin 4
binding result [5]: binds | binding result [6]: binds | binding result [7]: binds

B3: hu anti-<huCDH19> 4B10 (1-471)(R17G) VH::huIgG1z + 4B10 (1-236)(H45Q,A90T) VL::huKLC (Ab ID 14054) (antibody, V domains shown)
VH: QVQLVESGGGVVQPGGSLRLSCAASGFTFSSYDMHWVRQAPGKGLEWVAVISYDGTNEYYADSVKGRFTISRDTSKNTLYLQMNSLRAEDTAVYYCARERYFDWSFDYWGQGTLVSVSS
VL: EIVLTQSPGTLSLSPGERATLSCRASQSVSNTYLAWYQQRPGQAPRLLIYGASSRATGIPDRFSGSGSGTDFTLTISSLEPEDFAVYYCQQYSNSWTFGQGTKVEIKR
notes: Engineered variant of 4B10; the entries already carry the changes; Bin 4
binding result [5]: binds | binding result [6]: binds | binding result [7]: binds

B4: hu anti-<huCDH19> 26F12.1 (Ab ID 13881) (antibody, human IgG1, lambda, V domains shown)
VH: QVQLVQSGAEVKKPGASVKVSCKASRYTFTNYYMSWVRQAPGQGLEWMGIINPSGGDSTYAQKFQGRLTMTGDTSTSTVYMELSSLRSEDTAVYYCARGGIQLWLHFDYWGQGTLVTVSS
VL: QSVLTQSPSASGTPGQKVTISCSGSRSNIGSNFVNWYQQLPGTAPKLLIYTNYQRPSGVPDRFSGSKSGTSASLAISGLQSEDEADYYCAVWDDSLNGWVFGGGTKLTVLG
notes: huIgG1z / huLLC-C2; Bin 2; also called 27B3
binding result [1]: no binding (tested: 5 ug/ml) | binding result [2]: binds | binding result [3]: no binding (tested: 5 ug/ml) | binding result [4]: no binding (tested: 5 ug/ml) | binding result [8]: no binding (tested: 5 ug/ml)
